Source: US20250339569A1 (3B PHARMACEUTICALS, published 2025)
Starred links: 1 amine or outer side, 2 acyl side, 3 side chain; linkers in the order of their positions; H or OH if unused. Positions of bridges follow the written chain, without caps; N, C: chain ends. Non-standard residues stand in square brackets, D forms with d. Primed or numbered codes have the meaning given here. No end group written: not given here. *: point of attachment. Aph(SaPr) = 4-amino-L-phenylalanine, ring amine acylated by 3-sulfamoylpropanoic acid, NS(=O)(=O)CCC(=O)Nc1ccc(C[C@H](N[*:1])C(=O)[*:2])cc1; Aph(2Thz) = 4-aminophenylalanine with 1,3-thiazole-2-carbonyl on the ring amine, O=C(Nc1ccc(C[C@H](N[*:1])C(=O)[*:2])cc1)c1nccs1; 3MeBn = 3-methylbenzylidene (m-xylene unit) bridging two Cys S atoms via thioethers, from alpha,alpha'-dibromo-m-xylene; Aph(iNic) = 4-aminophenylalanine with isonicotinoyl on the ring amine, O=C(Nc1ccc(C[C@H](N[*:1])C(=O)[*:2])cc1)c1ccncc1; Aph(Bz) = 4-aminophenylalanine with benzoyl on the ring amine, O=C(Nc1ccc(C[C@H](N[*:1])C(=O)[*:2])cc1)c1ccccc1; Ttds = 1,13-diamino-4,7,10-trioxatridecan-succinamic acid spacer, NCCCOCCOCCOCCCNC(=O)CCC(=O)*; Phe(3-NHCO(CH2)3SO2NH2) = N[C@@H](Cc1cccc(NC(=O)CCCS(N)(=O)=O)c1)C(=O)O; APAc″ = 2-(4-(amino)piperidin-1-yl)acetic acid, NC1CCN(CC(=O)*)CC1; DOTA = O=C(O)CN1CCN(CC(=O)O)CCN(CC(=O)*)CCN(CC(=O)O)CC1; Pyridine(3,5-bisCH2) = c1ncc(C[*:2])cc1C[*:1]; Acetyl(2-(piperazin-1-yl)) = O=C(CN1CCNCC1)*; PPAc = 4-carboxymethyl piperazine linker; mXylylene = c1cc(C[*:1])cc(C[*:2])c1; 3Amb = NCc1cccc(C(=O)O)c1; Dab = NCC[C@H](N)C(=O)O; Thp = NC1(C(=O)O)CCOCC1; Cmp = not defined here; Dap = NC[C@H](N)C(=O)O

How the values were obtained:
[1] = target: T1, Fc-fusion protein of human carbonic anhydrase IX (human, UniProt Q16790 38-414); test: SPR, captured hCAIX-Fc; pKD category A: >8.0
[2] = target: T1, Fc-fusion protein of human carbonic …; test: SPR, captured hCAIX-Fc; t1/2 category D: <=2.0 min
Description: Stock solutions of test compounds were prepared by dissolving each compound in DMSO. DMSO stock solution were diluted 1:1000 in Running Buffer without DMSO. […] SPR binding analyses were performed in Single Cycle Kinetic (SCK) mode at 25° C.
For each test compound, SPR raw data in the form of resonance units (RU) were plotted as sensorgrams using the Biacore™ T200 control software. The signal from the blank sensorgram was subtracted from that of the test compound sensorgram (blank corrected). The blank corrected sensorgram was corrected for baseline drift by subtracting the sensorgram of a SCK run without the test compound (running buffer only). […] Raw data and fit results were imported as text files in IDBS. The pKD value (negative decadic logarithm of dissociation constant) was calculated in the IDBS excel template.

[3] = target: human carbonic anhydrase 9 (CAIX) (human, UniProt Q16790 38-459); test: FACS competition on HT-29 cells, competitor tracer 3BP-2776; category C = pIC50 6.1-7.0
Description: CAIX-expressing human HT-29 colorectal cancer cells (DSMZ, RRID: CVCL_0320) were cultured in McCoys's 5A modified medium (Biochrom, #F1015) including 10% fetal calf serum (FCS), 2 mM L-glutamine, 100 U/ml penicillin and 100 μg/mL streptomycin. Cells were detached with Accutase (Biolegend, #423201) and washed in FACS buffer (PBS including 1% FCS). Cells were diluted in FACS buffer to a final concentration of 500.000 cells per ml. 200 μL of the cell suspension were transferred to a u-shaped non-binding 96-well plate (Greiner) and cells were washed in ice-cold FACS buffer.
When biotinylated compounds were used an additional incubation step with 1 μg/mL APC-Streptavidin (Miltenyi; #130-106-791) in 50 μL FACS buffer for 30 minutes on ice was performed.
Cells were washed twice with ice-cold FACS buffer and analyzed in an Attune NxT flow cytometer (Thermo Fisher). Median fluorescence intensities (MFI) of the APC/Cy5-channel were calculated by Attune NxT software.

[4] = target: T2, human carbonic anhydrase 12 (CAXII), biotinylated (Sino Biological Cat #10617-H08H) (human, UniProt O43570 25-301, biotinylated (sites not given)); test: SPR (Biacore T200), biotinylated CAXII captured with Biotin CAPture Kit; limit of the category in which no binding is told
T2 construct: Bought protein, biotinylated and captured with the Biotin CAPture Kit; also called hCAXII-bio; carbonic anhydrase XII

[5] = target: T3, human carbonic anhydrase 14 (CAXIV), biotinylated (Sino Biological Cat #10458-H08H) (human, UniProt Q9ULX7 16-290, biotinylated (sites not given)); test: SPR (Biacore T200), biotinylated CAXIV captured with Biotin CAPture Kit; limit of the category in which no binding is told
T3 construct: Bought protein, biotinylated and captured with the Biotin CAPture Kit; also called hCAXIV-bio; carbonic anhydrase XIV

[6] = target: T4, human carbonic anhydrase 4 (CAIV), biotinylated (Sino Biological Cat #10472-H08H) (human, UniProt P22748 19-283, biotinylated (sites not given)); test: SPR (Biacore T200), biotinylated CAIV captured with Biotin CAPture Kit; limit of the category in which no binding is told
T4 construct: Bought protein, biotinylated and captured with the Biotin CAPture Kit; also called hCAIV-bio; carbonic anhydrase IV
T4 sequence (P22748 19-283 limits assumed): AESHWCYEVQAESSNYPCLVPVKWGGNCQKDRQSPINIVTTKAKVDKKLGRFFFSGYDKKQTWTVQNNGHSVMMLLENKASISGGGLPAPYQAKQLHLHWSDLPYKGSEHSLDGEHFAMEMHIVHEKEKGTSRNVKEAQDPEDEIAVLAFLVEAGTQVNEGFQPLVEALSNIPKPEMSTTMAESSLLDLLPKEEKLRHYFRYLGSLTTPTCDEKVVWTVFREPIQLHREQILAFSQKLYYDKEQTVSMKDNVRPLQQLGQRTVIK

T2 sequence (O43570 25-301 limits assumed): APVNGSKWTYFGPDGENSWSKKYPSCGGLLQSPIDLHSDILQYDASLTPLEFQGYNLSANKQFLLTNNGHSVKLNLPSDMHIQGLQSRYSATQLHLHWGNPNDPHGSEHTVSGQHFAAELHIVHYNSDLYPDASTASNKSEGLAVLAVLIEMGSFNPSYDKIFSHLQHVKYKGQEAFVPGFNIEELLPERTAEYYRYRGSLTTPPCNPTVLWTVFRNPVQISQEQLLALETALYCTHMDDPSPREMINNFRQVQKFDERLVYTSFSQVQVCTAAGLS
T3 sequence (Q9ULX7 16-290 limits assumed): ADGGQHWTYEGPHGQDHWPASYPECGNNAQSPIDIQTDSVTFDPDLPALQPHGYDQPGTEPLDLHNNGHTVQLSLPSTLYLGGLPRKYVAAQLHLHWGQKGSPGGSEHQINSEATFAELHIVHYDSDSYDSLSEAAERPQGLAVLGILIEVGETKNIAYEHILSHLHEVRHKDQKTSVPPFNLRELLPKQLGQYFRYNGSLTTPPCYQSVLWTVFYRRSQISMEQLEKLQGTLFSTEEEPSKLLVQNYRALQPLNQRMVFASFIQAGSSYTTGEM

Binder	pKD [1] [pkd]	t1/2 (half-life of the complex, SPR) [2] [min]	pIC50 [3] [pic50]	pKD [4]	pKD [5]	pKD [6]
{DOTA-APAc″}-VYCE[dP]D[Aph(iNic)]LTWSC-NH2 (linker 3-12 via mXylylene) [3BP-4183]	–	–	6.1 to 7	–	–	–
DCE[dP]DWLTW[Dap]C-NH2 (lactam 1-10; linker 2-11 via mXylylene; not fully specified (N-terminus); also: indium complexed by DOTA) [3BP-4338]	> 8	≤ 2	–	–	–	–
QCE[dP]D[Phe(3-NHCO(CH2)3SO2NH2)]LTWSC-NH2 (linker 2-11 via mXylylene; not fully specified (N-terminus); printed as LuDOTA-PPAc-Gln-[Cys(3MeBn)-Glu-pro-Asp-Af3(Cpsu)-Leu-Thr-Trp-Ser-Cys]-NH2; also: lutetium complexed in DOTA, also called natLu-DPI-4452) [3BP-4555: LuDOTA-PPAc-Gln-[Cys(3MeBn)-Glu-pro-Asp-Af3(Cpsu)-Leu-Thr-Trp-Ser-Cys]-NH2]	–	–	–	< 6	< 6	< 6
Ac-VYCE[dP][Dab]WLDWSC-NH2 (linker 3-12 via mXylylene; lactam 6-9; SMILES CC(=O)N[C@H](C(=O)N[C@@H](Cc1ccc(O)cc1)C(=O)N[C@H]1CSCc2cccc(c2)CSC[C@@H](C(N)=O)NC(=O)[C@H](CO)NC(=O)[C@H](Cc2c[nH]c3ccccc23)NC(=O)[C@@H]2CC(=O)NCC[C@H](NC(=O)[C@H]3CCCN3C(=O)[C@H](CCC(=O)O)NC1=O)C(=O)N[C@@H](Cc1c[nH]c3ccccc13)C(=O)N[C@@H](CC(C)C)C(=O)N2)C(C)C) [3BP-4050]	–	–	6.1 to 7	–	–	–
{DOTA-Ttds}-VYCEGDWLTWQC-NH2 (linker 3-12 via mXylylene) [3BP-2959]	> 8	≤ 2	–	–	–	–
{DOTA}-QCE[dP]D[Aph(SaPr)]LTWSC-NH2 (linker 2-11 via mXylylene; SMILES CC(C)C[C@@H]1NC(=O)[C@H](Cc2ccc(NC(=O)CCS(N)(=O)=O)cc2)NC(=O)[C@H](CC(=O)O)NC(=O)[C@H]2CCCN2C(=O)[C@H](CCC(=O)O)NC(=O)[C@@H](NC(=O)[C@H](CCC(N)=O)NC(=O)CN2CCN(CC(=O)O)CCN(CC(=O)O)CCN(CC(=O)O)CC2)CSCc2cccc(c2)CSC[C@@H](C(N)=O)NC(=O)[C@H](CO)NC(=O)[C@H](Cc2c[nH]c3ccccc23)NC(=O)[C@H]([C@@H](C)O)NC1=O, Cyclic peptide with uncomplexed DOTA; also called DPI-4501) [3BP-4501: DOTA-Gln-[Cys(3MeBn)-Glu-pro-Asp-Aph(SaPr)-Leu-Thr-Trp-Ser-Cys]-NH2]	–	–	–	< 6	< 6	< 6
{DOTA-Cmp}-DCE[dP]DWLTW[Dap]C-NH2 (lactam 10-1; linker 2-11 via mXylylene; reading uncertain) [3BP-4259]	> 8	≤ 2	–	–	–	–
Ac-VYCE[dP]DWLKWSC-NH2 (linker 3-12 via mXylylene; lactam 4-9; SMILES CC(=O)N[C@H](C(=O)N[C@@H](Cc1ccc(O)cc1)C(=O)N[C@H]1CSCc2cccc(c2)CSC[C@@H](C(N)=O)NC(=O)[C@H](CO)NC(=O)[C@H](Cc2c[nH]c3ccccc23)NC(=O)[C@@H]2CCCCNC(=O)CC[C@H](NC1=O)C(=O)N1CCC[C@@H]1C(=O)N[C@@H](CC(=O)O)C(=O)N[C@@H](Cc1c[nH]c3ccccc13)C(=O)N[C@@H](CC(C)C)C(=O)N2)C(C)C) [3BP-3899]	–	–	6.1 to 7	–	–	–
Ac-VYCE[dP]KWL[dD]WSC-NH2 (linker 3-12 via mXylylene; lactam 6-9; SMILES CC(=O)N[C@H](C(=O)N[C@@H](Cc1ccc(O)cc1)C(=O)N[C@H]1CSCc2cccc(c2)CSC[C@@H](C(N)=O)NC(=O)[C@H](CO)NC(=O)[C@H](Cc2c[nH]c3ccccc23)NC(=O)[C@H]2CC(=O)NCCCC[C@H](NC(=O)[C@H]3CCCN3C(=O)[C@H](CCC(=O)O)NC1=O)C(=O)N[C@@H](Cc1c[nH]c3ccccc13)C(=O)N[C@@H](CC(C)C)C(=O)N2)C(C)C) [3BP-4043]	–	–	6.1 to 7	–	–	–
{DOTA-Acetyl(2-(piperazin-1-yl))}-QCE[dP]D[Phe(3-NHCO(CH2)3SO2NH2)]LTWSC-NH2 (linker 2-11 via 3MeBn, Cyclic peptide with uncomplexed DOTA; also called DPI-4452) [3BP-4452: DOTA-PPAc-Gln-[Cys(3MeBn)-Glu-pro-Asp-Af3(Cpsu)-Leu-Thr-Trp-Ser-Cys]-NH2]	–	–	–	< 6	< 6	< 6
{DOTA-APAc″}-VYCE[dP]DWLTWSC-NH2 (linker 3-12 via Pyridine(3,5-bisCH2)) [3BP-4141]	–	–	6.1 to 7	–	–	–
{DOTA-APAc″}-VYCE[dP]D[Aph(2Thz)]LTWSC-NH2 (linker 3-12 via mXylylene) [3BP-4180]	–	–	6.1 to 7	–	–	–

The next lines start with the values.

pKD [1] [pkd]	t1/2 (half-life of the complex, SPR) [2] [min]	pIC50 [3] [pic50]	pKD [4]	pKD [5]	pKD [6]	Binder
> 8	≤ 2	–	–	–	–	{DOTA-APAc″}-CE[dP]DWLTWSC-NH2 (linker 1-10 via mXylylene) [3BP-3858]
> 8	≤ 2	–	–	–	–	{DOTA-3Amb}-DCE[dP]DWLTW[Dap]C-NH2 (lactam 10-1; linker 2-11 via mXylylene; SMILES CC(C)C[C@@H]1NC(=O)[C@H](Cc2c[nH]c3ccccc23)NC(=O)[C@H](CC(=O)O)NC(=O)[C@H]2CCCN2C(=O)[C@H](CCC(=O)O)NC(=O)[C@@H]2CSCc3cccc(c3)CSC[C@@H](C(N)=O)NC(=O)[C@H](CNC(=O)C[C@H](NC(=O)c3cccc(CNC(=O)CN4CCN(CC(=O)O)CCN(CC(=O)O)CCN(CC(=O)O)CC4)c3)C(=O)N2)NC(=O)[C@H](Cc2c[nH]c3ccccc23)NC(=O)[C@H]([C@@H](C)O)NC1=O) [3BP-4260]
–	–	–	< 6	< 6	< 6	{DOTA-APAc″}-VDCE[dP]DWLTW[Dap]C-NH2 (lactam 2-11; linker 3-12 via mXylylene, Bicyclic peptide with uncomplexed DOTA; also called DPI-4174) [3BP-4174: DOTA-APAc-Val-{Asp-[Cys(3MeBn)-Glu-pro-Asp-Trp-Leu-Thr-Trp-Dap}-Cys]-NH2]
> 8	≤ 2	–	–	–	–	{DOTA-PPAc}-DCE[dP]DWLTW[Dap]C-NH2 (lactam 10-1; linker 2-11 via mXylylene) [3BP-4255]
–	–	6.1 to 7	–	–	–	{DOTA-APAc″}-VYCE[dP]D[Aph(Bz)]LTWSC-NH2 (linker 3-12 via mXylylene) [3BP-4171]
–	–	–	< 6	< 6	< 6	{DOTA-APAc″}-VYCE[dP]DWLTWSC-NH2 (linker 3-12 via mXylylene, Cyclic peptide with uncomplexed DOTA; also called DPI-3583) [3BP-3583: DOTA-APAc-Val-Tyr-[Cys(3MeBn)-Glu-pro-Asp-Trp-Leu-Thr-Trp-Ser-Cys]-NH2]
–	–	6.1 to 7	–	–	–	Ac-VYCE[dP]KW[Thp]EWSC-NH2 (linker 3-12 via mXylylene; lactam 6-9; SMILES CC(=O)N[C@H](C(=O)N[C@@H](Cc1ccc(O)cc1)C(=O)N[C@H]1CSCc2cccc(c2)CSC[C@@H](C(N)=O)NC(=O)[C@H](CO)NC(=O)[C@H](Cc2c[nH]c3ccccc23)NC(=O)[C@@H]2CCC(=O)NCCCC[C@H](NC(=O)[C@H]3CCCN3C(=O)[C@H](CCC(=O)O)NC1=O)C(=O)N[C@@H](Cc1c[nH]c3ccccc13)C(=O)NC1(CCOCC1)C(=O)N2)C(C)C) [3BP-3962]
–	–	–	< 6	< 6	< 6	{DOTA}-ECE[dP]D[Phe(3-NHCO(CH2)3SO2NH2)]LTW[Dap]C-NH2 (lactam 1-10; linker 2-11 via mXylylene, Bicyclic peptide with uncomplexed DOTA; also called DPI-4503) [3BP-4503: DOTA-{Glu-[Cys(3MeBn)-Glu-pro-Asp-Af3(Cpsu)-Leu-Thr-Trp-Dap}-Cys]-NH2]
